Laboratory results published in IntAct's records for PubMed 31515488.

B1: Cyclin-D1-binding protein 1 (Homo sapiens), O95273 (parent)
chain: MASATAPAAAVPTLASPLEQLRHLAEELRLLLPRVRVGEAQETTEEFNREMFWRRLNEAAVTVSREATTLTIVFSQLPLPSPQETQKFCEQVHAAIKAFIAVYYLLPKDQGITLRKLVRGATLDIVDGMAQLMEVLSVTPTQSPENNDLISYNSVWVACQQMPQIPRDNKAAALLMLTKNVDFVKDAHEEMEQAVEECDPYSGLLNDTEENNSDNHNHEDDVLGFPSNQDLYWSEDDQELIIPCLALVRASKACLKKIRMLVAENGKKDQVAQLDDIVDISDEISPSVDDLALSIYPPMCHLTVRINSAKLVSVLKKALEITKASHVTPQPEDSWIPLLINAIDHCMNRIKELTQSELEL
B2: Zinc finger protein Aiolos (Homo sapiens), Q9UKT9 (parent)
chain: MEDIQTNAELKSTQEQSVPAESAAVLNDYSLTKSHEMENVDSGEGPANEDEDIGDDSMKVKDEYSERDENVLKSEPMGNAEEPEIPYSYSREYNEYENIKLERHVVSFDSSRPTSGKMNCDVCGLSCISFNVLMVHKRSHTGERPFQCNQCGASFTQKGNLLRHIKLHTGEKPFKCHLCNYACQRRDALTGHLRTHSVEKPYKCEFCGRSYKQRSSLEEHKERCRTFLQSTDPGDTASAEARHIKAEMGSERALVLDRLASNVAKRKSSMPQKFIGEKRHCFDVNYNSSYMYEKESELIQTRMMDQAINNAISYLGAEALRPLVQTPPAPTSEMVPVISSMYPIALTRAEMSNGAPQELEKKSIHLPEKSVPSERGLSPNNSGHDSTDTDSNHEERQNHIYQQNHMVLSRARNGMPLLKEVPRSYELLKPPPICPRDSVKVINKEGEVMDVYRCDHCRVLFLDYVMFTIHMGCHGFRDPFECNMCGYRSHDRYEFSSHIARGEHRALLK

Variants of: B1
Details: with ezh1_human EZH1, Q92800
Chain of ezh1_human EZH1, Q92800 (Q92800 whole entry): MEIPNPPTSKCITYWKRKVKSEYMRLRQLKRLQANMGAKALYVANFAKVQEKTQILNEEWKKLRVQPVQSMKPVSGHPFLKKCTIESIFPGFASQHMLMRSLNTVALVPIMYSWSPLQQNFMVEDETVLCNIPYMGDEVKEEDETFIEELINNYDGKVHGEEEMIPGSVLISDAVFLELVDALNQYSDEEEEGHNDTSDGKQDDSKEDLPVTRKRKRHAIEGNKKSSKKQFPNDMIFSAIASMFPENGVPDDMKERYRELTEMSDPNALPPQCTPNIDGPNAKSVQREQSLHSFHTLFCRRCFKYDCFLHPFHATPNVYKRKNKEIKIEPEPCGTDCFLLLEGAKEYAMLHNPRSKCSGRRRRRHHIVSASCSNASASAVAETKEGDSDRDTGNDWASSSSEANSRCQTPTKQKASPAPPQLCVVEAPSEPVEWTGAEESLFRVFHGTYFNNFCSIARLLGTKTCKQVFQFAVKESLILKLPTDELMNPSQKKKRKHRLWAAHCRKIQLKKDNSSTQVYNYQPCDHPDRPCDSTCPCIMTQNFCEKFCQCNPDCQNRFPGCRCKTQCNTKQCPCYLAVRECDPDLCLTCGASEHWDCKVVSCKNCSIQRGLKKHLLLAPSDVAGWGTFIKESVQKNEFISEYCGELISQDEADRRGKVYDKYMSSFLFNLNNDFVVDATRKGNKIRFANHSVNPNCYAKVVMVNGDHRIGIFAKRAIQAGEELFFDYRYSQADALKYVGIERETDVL

Row | effect of a mutation on the interaction | Variant
1 | disrupting interaction strength | I277T

Variants of: B1
Details: with pex39_human PEX39, Q5I0X4

Row | effect of a mutation on the interaction | Variant
2 | disrupting interaction strength | I277T

Variants of: B1
Details: with evg1_human C22orf23, Q9BZE7
Chain of evg1_human C22orf23, Q9BZE7 (Q9BZE7 whole entry): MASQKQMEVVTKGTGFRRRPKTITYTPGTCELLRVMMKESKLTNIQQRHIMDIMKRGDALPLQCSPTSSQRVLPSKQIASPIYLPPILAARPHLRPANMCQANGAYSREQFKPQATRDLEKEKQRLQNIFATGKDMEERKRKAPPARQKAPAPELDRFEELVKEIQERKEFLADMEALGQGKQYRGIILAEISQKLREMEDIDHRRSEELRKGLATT

Row | effect of a mutation on the interaction | Variant
3 | disrupting interaction strength | I277T

Variants of: B1
Details: with map7_human MAP7, Q14244
Chain of map7_human MAP7, Q14244 (Q14244 whole entry): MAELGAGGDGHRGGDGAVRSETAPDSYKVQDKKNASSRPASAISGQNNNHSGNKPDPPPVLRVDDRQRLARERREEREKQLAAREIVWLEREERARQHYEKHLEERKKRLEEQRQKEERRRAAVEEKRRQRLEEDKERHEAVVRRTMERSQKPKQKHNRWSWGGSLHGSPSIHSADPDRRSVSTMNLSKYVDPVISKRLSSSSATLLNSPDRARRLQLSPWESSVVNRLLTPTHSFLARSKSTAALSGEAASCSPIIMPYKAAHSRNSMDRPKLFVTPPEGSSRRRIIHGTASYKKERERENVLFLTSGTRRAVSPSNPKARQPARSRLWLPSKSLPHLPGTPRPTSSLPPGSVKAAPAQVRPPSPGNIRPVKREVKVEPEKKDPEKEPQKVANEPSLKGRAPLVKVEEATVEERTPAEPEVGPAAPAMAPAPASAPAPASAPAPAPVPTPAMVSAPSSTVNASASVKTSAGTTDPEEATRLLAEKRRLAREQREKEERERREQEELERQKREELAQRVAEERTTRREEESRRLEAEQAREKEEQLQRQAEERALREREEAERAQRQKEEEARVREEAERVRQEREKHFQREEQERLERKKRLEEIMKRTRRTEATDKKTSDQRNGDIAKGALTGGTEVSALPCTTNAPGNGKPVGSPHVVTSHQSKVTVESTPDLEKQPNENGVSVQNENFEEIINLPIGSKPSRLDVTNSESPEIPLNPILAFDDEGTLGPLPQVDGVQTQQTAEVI

Row | effect of a mutation on the interaction | Variant
4 | disrupting interaction strength | I277T

Variants of: B1
Details: with myp2_human PMP2, P02689

Row | effect of a mutation on the interaction | Variant
5 | disrupting interaction strength | I277T

Variants of: B1
Details: with rl39l_human RPL39L

Row | effect of a mutation on the interaction | Variant
6 | disrupting interaction strength | I277T

Variants of: B1
Details: with zn707_human ZNF707, Q96C28

Row | effect of a mutation on the interaction | Variant
7 | disrupting interaction strength | I277T

Variants of: B1
Details: with bmp7_human BMP7, P18075
Chain of bmp7_human BMP7, P18075 (P18075 whole entry): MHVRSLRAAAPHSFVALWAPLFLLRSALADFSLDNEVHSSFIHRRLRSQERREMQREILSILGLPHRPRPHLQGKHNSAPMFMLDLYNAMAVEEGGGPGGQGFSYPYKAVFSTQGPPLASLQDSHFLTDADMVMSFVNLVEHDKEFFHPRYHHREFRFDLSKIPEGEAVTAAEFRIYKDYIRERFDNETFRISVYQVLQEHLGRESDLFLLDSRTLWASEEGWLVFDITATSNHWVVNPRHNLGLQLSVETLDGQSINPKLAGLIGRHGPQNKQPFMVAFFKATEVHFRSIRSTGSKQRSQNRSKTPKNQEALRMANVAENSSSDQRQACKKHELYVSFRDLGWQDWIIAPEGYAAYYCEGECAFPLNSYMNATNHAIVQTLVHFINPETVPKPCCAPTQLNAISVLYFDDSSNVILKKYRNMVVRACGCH

Row | effect of a mutation on the interaction | Variant
8 | disrupting interaction strength | I277T

Variants of: B1
Details: with zn136_human ZNF136, P52737

Row | effect of a mutation on the interaction | Variant
9 | disrupting interaction strength | I277T

Variants of: B1
Details: with cul5_human CUL5, Q93034

Row | effect of a mutation on the interaction | Variant
10 | disrupting interaction strength | I277T

Variants of: B1
Details: with zn555_human ZNF555, Q8NEP9

Row | effect of a mutation on the interaction | Variant
11 | disrupting interaction strength | I277T

Variants of: B1
Details: with ilf2_human ILF2, Q12905

Row | effect of a mutation on the interaction | Variant
12 | disrupting interaction strength | I277T

Variants of: B1
Details: with tnnt1_human TNNT1, P13805
Chain of tnnt1_human TNNT1, P13805 (P13805 whole entry): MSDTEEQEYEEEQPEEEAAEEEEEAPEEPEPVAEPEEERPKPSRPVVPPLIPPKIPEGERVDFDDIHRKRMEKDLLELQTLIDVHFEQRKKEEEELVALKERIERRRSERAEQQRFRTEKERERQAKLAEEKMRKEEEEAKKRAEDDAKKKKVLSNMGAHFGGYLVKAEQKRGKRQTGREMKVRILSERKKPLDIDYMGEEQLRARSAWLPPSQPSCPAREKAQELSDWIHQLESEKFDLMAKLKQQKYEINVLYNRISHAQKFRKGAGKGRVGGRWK

Row | effect of a mutation on the interaction | Variant
13 | disrupting interaction strength | I277T

Variants of: B1
Details: with nano2_human NANOS2, P60321
Chain of nano2_human NANOS2, P60321 (P60321 whole entry): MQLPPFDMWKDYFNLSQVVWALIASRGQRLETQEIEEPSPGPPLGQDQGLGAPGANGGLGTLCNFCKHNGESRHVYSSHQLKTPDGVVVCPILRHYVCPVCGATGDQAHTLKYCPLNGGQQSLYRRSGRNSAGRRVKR

Row | effect of a mutation on the interaction | Variant
14 | disrupting interaction strength | I277T

Variants of: B1
Details: with tha10_human THAP10, Q9P2Z0

Row | effect of a mutation on the interaction | Variant
15 | disrupting interaction strength | I277T

Variants of: B1
Details: with tppc5_human TRAPPC5, Q8IUR0
Chain of tppc5_human TRAPPC5, Q8IUR0 (Q8IUR0 whole entry): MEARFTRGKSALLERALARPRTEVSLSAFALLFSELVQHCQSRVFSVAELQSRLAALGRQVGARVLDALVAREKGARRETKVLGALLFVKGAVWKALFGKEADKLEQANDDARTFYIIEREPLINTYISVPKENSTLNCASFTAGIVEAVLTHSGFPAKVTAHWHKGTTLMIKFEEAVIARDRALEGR

Row | effect of a mutation on the interaction | Variant
16 | disrupting interaction strength | I277T

Variants of: B2
Details: with aakb2_human PRKAB2, O43741
Chain of aakb2_human PRKAB2, O43741 (O43741 whole entry): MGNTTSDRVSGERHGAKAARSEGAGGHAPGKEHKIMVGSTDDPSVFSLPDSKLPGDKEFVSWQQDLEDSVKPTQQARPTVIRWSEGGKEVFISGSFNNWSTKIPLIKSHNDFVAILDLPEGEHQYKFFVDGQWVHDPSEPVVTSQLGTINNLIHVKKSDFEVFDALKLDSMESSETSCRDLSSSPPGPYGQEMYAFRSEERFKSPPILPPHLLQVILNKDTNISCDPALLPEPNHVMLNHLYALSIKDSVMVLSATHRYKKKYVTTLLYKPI

Row | effect of a mutation on the interaction | Variant
17 | with no effect | N119D

Variants of: B2
Details: with exoc8_human EXOC8, Q8IYI6
Chain of exoc8_human EXOC8, Q8IYI6 (Q8IYI6 whole entry): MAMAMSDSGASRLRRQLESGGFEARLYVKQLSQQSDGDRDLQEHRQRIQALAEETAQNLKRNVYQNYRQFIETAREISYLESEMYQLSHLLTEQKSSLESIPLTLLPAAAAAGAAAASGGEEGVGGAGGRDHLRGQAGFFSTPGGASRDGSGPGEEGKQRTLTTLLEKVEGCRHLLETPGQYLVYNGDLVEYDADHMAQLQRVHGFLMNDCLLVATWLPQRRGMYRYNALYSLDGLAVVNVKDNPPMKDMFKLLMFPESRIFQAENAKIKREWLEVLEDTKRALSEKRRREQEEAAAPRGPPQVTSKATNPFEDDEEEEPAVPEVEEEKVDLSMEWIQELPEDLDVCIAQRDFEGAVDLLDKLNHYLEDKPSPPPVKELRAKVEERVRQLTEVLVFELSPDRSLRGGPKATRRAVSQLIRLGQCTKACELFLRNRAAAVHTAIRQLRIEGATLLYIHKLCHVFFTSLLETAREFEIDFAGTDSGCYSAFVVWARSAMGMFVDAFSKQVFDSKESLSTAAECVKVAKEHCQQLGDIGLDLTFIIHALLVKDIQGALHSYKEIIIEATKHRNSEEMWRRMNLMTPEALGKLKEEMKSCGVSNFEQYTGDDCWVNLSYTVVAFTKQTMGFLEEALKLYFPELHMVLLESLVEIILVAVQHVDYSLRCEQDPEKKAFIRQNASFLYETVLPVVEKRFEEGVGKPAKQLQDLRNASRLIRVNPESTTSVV

Row | effect of a mutation on the interaction | Variant
18 | with no effect | N119D

Variants of: B2
Details: with tb22b_human TBC1D22B

Row | effect of a mutation on the interaction | Variant
19 | with no effect | N119D

Variants of: B2
Details: with p85b_human PIK3R2, O00459
Chain of p85b_human PIK3R2, O00459 (O00459 whole entry): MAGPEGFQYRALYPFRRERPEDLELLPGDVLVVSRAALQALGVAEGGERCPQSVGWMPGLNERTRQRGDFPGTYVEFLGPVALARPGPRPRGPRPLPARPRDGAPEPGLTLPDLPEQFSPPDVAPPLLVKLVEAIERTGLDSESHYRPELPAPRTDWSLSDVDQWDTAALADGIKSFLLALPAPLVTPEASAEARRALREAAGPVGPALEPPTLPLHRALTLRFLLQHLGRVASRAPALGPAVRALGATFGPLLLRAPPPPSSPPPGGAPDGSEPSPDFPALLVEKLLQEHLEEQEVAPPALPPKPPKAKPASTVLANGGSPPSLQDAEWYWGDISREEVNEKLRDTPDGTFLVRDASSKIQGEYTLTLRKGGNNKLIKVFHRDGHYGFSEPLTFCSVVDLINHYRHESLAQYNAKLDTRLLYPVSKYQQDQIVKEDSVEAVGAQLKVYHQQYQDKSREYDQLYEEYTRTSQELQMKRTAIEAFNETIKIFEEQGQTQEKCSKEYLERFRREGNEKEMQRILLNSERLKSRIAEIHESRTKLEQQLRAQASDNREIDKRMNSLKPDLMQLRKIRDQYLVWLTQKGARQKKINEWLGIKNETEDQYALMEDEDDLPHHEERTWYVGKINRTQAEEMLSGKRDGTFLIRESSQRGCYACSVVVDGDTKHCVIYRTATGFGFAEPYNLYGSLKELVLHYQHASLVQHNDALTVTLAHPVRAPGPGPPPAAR

Row | effect of a mutation on the interaction | Variant
20 | disrupting interaction strength | N119D

Variants of: B2
Details: with rpac1_human POLR1C

Row | effect of a mutation on the interaction | Variant
21 | with no effect | N119D

Variants of: B2
Details: with pfd5_human PFDN5, Q99471
Chain of pfd5_human PFDN5, Q99471 (Q99471 whole entry): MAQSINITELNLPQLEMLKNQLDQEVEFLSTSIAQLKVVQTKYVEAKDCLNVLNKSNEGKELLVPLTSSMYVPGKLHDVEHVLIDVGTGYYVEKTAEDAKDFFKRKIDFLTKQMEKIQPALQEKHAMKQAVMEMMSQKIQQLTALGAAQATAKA

Row | effect of a mutation on the interaction | Variant
22 | with no effect | N119D

Variants of: B2
Details: with nek6_human NEK6, Q9HC98
Chain of nek6_human NEK6, Q9HC98 (Q9HC98 whole entry): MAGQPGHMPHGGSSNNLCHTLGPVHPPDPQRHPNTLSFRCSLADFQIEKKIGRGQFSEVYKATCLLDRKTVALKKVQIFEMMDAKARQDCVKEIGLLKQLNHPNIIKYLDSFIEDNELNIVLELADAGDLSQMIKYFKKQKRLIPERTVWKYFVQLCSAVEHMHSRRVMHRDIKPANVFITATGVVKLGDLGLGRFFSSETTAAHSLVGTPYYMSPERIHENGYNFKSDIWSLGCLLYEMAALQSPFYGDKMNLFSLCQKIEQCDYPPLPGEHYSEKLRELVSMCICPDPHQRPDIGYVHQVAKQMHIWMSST

Row | effect of a mutation on the interaction | Variant
23 | with no effect | N119D

Variants of: B2
Details: with exos5_human EXOSC5, Q9NQT4

Row | effect of a mutation on the interaction | Variant
24 | with no effect | N119D

Variants of: B2
Details: with tstd2_human TSTD2, Q5T7W7

Row | effect of a mutation on the interaction | Variant
25 | with no effect | N119D
